Numbering of substitutions follows the chain as printed.
B1: bdSENP1^MutH (protein)
chain: PFVPLTDEDEDNVRHALGGRKPSETLSVHEASAIVITREILQCLNDKEWLNDEVINLYLELLKERELREPNKFLKCHFFNTFFYKKLINGYDYKSVREWTTMRKLGYNLIDCDKIFVPIHKDVHWCLAVINIKEKKFQYLDSLGYMDMKALRILAKYLVDEVKDKSGKQIDVHAWKQEGVQNLPLQENGWDCGMFMLKYIDFYSRDMELVFGQKHMSYFRRRTAKEILDLKAG
B2: bdSENP1^MutG (protein)
chain: PFVPLTDEDEDNVRHALGGRKSSETLSVHEASHIVITREILQCLNDKEWLNDEVINLYLELLKERELREPNKFLKCHFFNTFFYKKLINGGYDYKSVRRWTTVKLGYNLIDCDKIFVPIHKDVHWCLAVINIKEKKFQYLDSLGYMDMKALRILAKYLVDEVKDKSGKQIDVHAWKQEGVQNLPLQENGWDCGMFMLKYIDFYSRDMELVFGQKHMSYFRRRTAKEILDLKAG
B3: Ulp1 from S. cerevisiae (protein)
chain: LVPELNEKDDDQVQKALASRENTQLMNRDNIEITVRDFKTLAPRRWLNDTIIEFFMKYIEKSTPNTVAFNSFFYTNLSERGYQGVRRWMKRKKTQIDKLDKIFTPINLNQSHWALGIIDLKKKTIGYVDSLSNGPNAMSFAILTDLQKYVMEESKHTIGEDFDLIHLDCPQQPNGYDCGIYVCMNTLYGSADAPLDFDYKDAIRMRRFIAHLILTDALK
B4: bdSENP1^MutJ (protein)
chain: PFVPLTDEDEDNVRHALGGRKESETLSVHEASSIVITREILQCLNDKEWLNDEVINLYLELLKERELREPNKFLKCHFFNTFFYKKLINGGYDYKSVRSWTTTRKLGYNLIDCDKIFVPIHKDVHWCLAVINIKEKKFQYLDSLGYMDMKALRILAKYLVDEVKDKSGKQIDVHAWKQEGVQNLPLQENGWDCGMFMLKYIDFYSRDMELVFGQKHMSYFRRRTAKEILDLKAG
B5: bdSENP1 from B. distachyon (protein)
chain: B4 chain with E22R, S33N, S99R, T103K
B6: bdSENP1^MutK (protein)
chain: B4 chain with E22V, S33Q, S99V, T103G
B7: bdSENP1^Muti (protein)
chain: B4 chain with E22K, S33H, S99E, T103R

biological target: bdSUMO D67K-MBP fusion protein

B1 and B2 cannot be ordered by cleavage of the SUMO fusion protein: less than 75 % cleavage for the first, less than 75 % cleavage for the second.

Compared with B4, B5 is lower in cleavage of the SUMO fusion protein: 100 % cleavage for the first, less than 25 % cleavage for the second.

Going from B6 to B7, the cleavage of the SUMO fusion protein falls from 100 % cleavage to less than 25 % cleavage.

B3 was tested, and the “cleavage of the SUMO fusion protein” value was “resistant”.

biological target: bdSUMO Mut10-MBP fusion protein

B1 and B2 are the same in cleavage of the SUMO fusion protein: 100 % cleavage for the first, 100 % cleavage for the second.

First: B4
Second: B5
The cleavage of the SUMO fusion protein of the first is higher: 100 % cleavage for the first, less than 25 % cleavage for the second.

Compared with B6, B7 is lower in cleavage of the SUMO fusion protein: 100 % cleavage for the first, less than 50 % cleavage for the second.

With B3 the “cleavage of the SUMO fusion protein” value was “resistant”.

biological target: bdSUMO Mut11-MBP fusion protein

First: B1
Second: B2
The cleavage of the SUMO fusion protein of the first is higher: 100 % cleavage for the first, less than 75 % cleavage for the second.

Going from B4 to B5, the cleavage of the SUMO fusion protein falls from 100 % cleavage to less than 25 % cleavage.

Compared with B6, B7 is lower in cleavage of the SUMO fusion protein: 100 % cleavage for the first, less than 50 % cleavage for the second.

In the case of B3, the “cleavage of the SUMO fusion protein” value is reported as “resistant”.

biological target: bdSUMO Mut12-MBP fusion protein

First: B1
Second: B2
The cleavage of the SUMO fusion protein of the first is higher: 100 % cleavage for the first, less than 50 % cleavage for the second.

B4 and B5 cannot be ordered by cleavage of the SUMO fusion protein: less than 50 % cleavage for the first, less than 25 % cleavage for the second.

Going from B6 to B7, the cleavage of the SUMO fusion protein falls from 100 % cleavage to less than 50 % cleavage.

With B3 the “cleavage of the SUMO fusion protein” value was “resistant”.

biological target: bdSUMO Mut13-MBP fusion protein

First: B1
Second: B2
The cleavage of the SUMO fusion protein of the first is higher: 100 % cleavage for the first, less than 75 % cleavage for the second.

Going from B4 to B5, the cleavage of the SUMO fusion protein falls from 100 % cleavage to less than 50 % cleavage.

Compared with B6, B7 is lower in cleavage of the SUMO fusion protein: 100 % cleavage for the first, less than 75 % cleavage for the second.

B3 was tested, and the “cleavage of the SUMO fusion protein” value was “resistant”.

biological target: bdSUMO Mut14-MBP fusion protein

First: B1
Second: B2
The cleavage of the SUMO fusion protein of the first is higher: 100 % cleavage for the first, less than 50 % cleavage for the second.

B4 and B5 cannot be ordered by cleavage of the SUMO fusion protein: less than 50 % cleavage for the first, less than 25 % cleavage for the second.

Going from B6 to B7, the cleavage of the SUMO fusion protein falls from 100 % cleavage to less than 50 % cleavage.

In the case of B3, the “cleavage of the SUMO fusion protein” value is reported as “resistant”.

biological target: bdSUMO Mut15-MBP fusion protein

Compared with B1, B2 is lower in cleavage of the SUMO fusion protein: 100 % cleavage for the first, less than 75 % cleavage for the second.

Compared with B4, B5 is lower in cleavage of the SUMO fusion protein: 100 % cleavage for the first, less than 25 % cleavage for the second.

First: B6
Second: B7
The cleavage of the SUMO fusion protein of the first is higher: 100 % cleavage for the first, less than 50 % cleavage for the second.

In the case of B3, the “cleavage of the SUMO fusion protein” value is reported as “resistant”.

biological target: bdSUMO Mut8-MBP fusion protein

B1 and B2 cannot be ordered by cleavage of the SUMO fusion protein: less than 75 % cleavage for the first, less than 25 % cleavage for the second.

B4 and B5 cannot be ordered by cleavage of the SUMO fusion protein: less than 50 % cleavage for the first, less than 25 % cleavage for the second.

B6 and B7 cannot be ordered by cleavage of the SUMO fusion protein: less than 75 % cleavage for the first, less than 25 % cleavage for the second.

B3 was tested, and the “cleavage of the SUMO fusion protein” value was “resistant”.

biological target: bdSUMO-MBP fusion protein

B1 and B2 cannot be ordered by cleavage of the SUMO fusion protein: less than 25 % cleavage for the first, less than 50 % cleavage for the second.

Compared with B3, B4 is lower in cleavage of the SUMO fusion protein: 100 % cleavage for the first, less than 50 % cleavage for the second.

Going from B5 to B6, the cleavage of the SUMO fusion protein falls from 100 % cleavage to less than 50 % cleavage.

B7 gave a cleavage of the SUMO fusion protein of less than 25 % cleavage.

With B5 the “protease concentration required to efficiently cleave 100 µM cognate substrate, 1 h at 0 °C” value was “Around 15-50 nM of these two proteases were required to efficiently cleave the cognate substrate”.

biological target: bdSUMO^Mut1-MBP fusion protein

B1 and B2 are the same in cleavage of the SUMO fusion protein: 100 % cleavage for the first, 100 % cleavage for the second.

Going from B4 to B5, the cleavage of the SUMO fusion protein falls from 100 % cleavage to less than 25 % cleavage.

B6 and B7 are the same in cleavage of the SUMO fusion protein: 100 % cleavage for the first, 100 % cleavage for the second.

For B3, the “cleavage of the SUMO fusion protein” value was “resistant”.

biological target: hsSUMO2-MBP fusion protein

For B1, the “cleavage of the SUMO fusion protein” value was “resistant”.
B6 was tested, and the “cleavage of the SUMO fusion protein” value was “resistant”.
For B7, the “cleavage of the SUMO fusion protein” value was “resistant”.

First: B2
Second: B3
The cleavage of the SUMO fusion protein of the first is higher: 100 % cleavage for the first, less than 25 % cleavage for the second.

B4 and B5 cannot be ordered by cleavage of the SUMO fusion protein: less than 50 % cleavage for the first, less than 50 % cleavage for the second.

biological target: hsSUMO2-MBP fusion protein with the bdSUMO^Mut1 exchanges

In the case of B3, the “cleavage of SUMO-MBP fusion, 1 h at 25 °C (FIG. 14)” value (shortened to “cleavage of SUMO-MBP fusion, 1 h”) is reported as “allowed cleavage resistance against Ulp1, SUMOstar protease, hsSENP2 and bdSENP1”.
B5 was tested, and the “cleavage of SUMO-MBP fusion, 1 h” value was “allowed cleavage resistance against Ulp1, SUMOstar protease, hsSENP2 and bdSENP1”.

biological target: hsSUMO2-MBP fusion protein with the bdSUMO^Mut11 exchanges

With B3 the “cleavage of SUMO-MBP fusion, 1 h” value was “allowed cleavage resistance against Ulp1, SUMOstar protease, hsSENP2 and bdSENP1”.
For B5, the “cleavage of SUMO-MBP fusion, 1 h” value was “allowed cleavage resistance against Ulp1, SUMOstar protease, hsSENP2 and bdSENP1”.

biological target: scSUMO-MBP fusion protein

In the case of B1, the “cleavage of the SUMO fusion protein” value is reported as “resistant”.
With B6 the “cleavage of the SUMO fusion protein” value was “resistant”.
With B7 the “cleavage of the SUMO fusion protein” value was “resistant”.

Going from B2 to B3, the cleavage of the SUMO fusion protein rises from less than 25 % cleavage to 100 % cleavage.

B4 and B5 cannot be ordered by cleavage of the SUMO fusion protein: less than 25 % cleavage for the first, less than 50 % cleavage for the second.

For B3, the “protease concentration required to efficiently cleave 100 µM cognate substrate, 1 h at 0 °C” value was “Around 15-50 nM of these two proteases were required to efficiently cleave the cognate substrate”.

biological target: scSUMO-MBP fusion protein with the bdSUMO^Mut1 exchanges

With B3 the “cleavage of SUMO-MBP fusion, 1 h” value was “allowed cleavage resistance against Ulp1, SUMOstar protease, hsSENP2 and bdSENP1”.
With B5 the “cleavage of SUMO-MBP fusion, 1 h” value was “allowed cleavage resistance against Ulp1, SUMOstar protease, hsSENP2 and bdSENP1”.

biological target: scSUMO-MBP fusion protein with the bdSUMO^Mut11 exchanges

For B3, the “cleavage of SUMO-MBP fusion, 1 h” value was “allowed cleavage resistance against Ulp1, SUMOstar protease, hsSENP2 and bdSENP1”.
B5 was tested, and the “cleavage of SUMO-MBP fusion, 1 h” value was “allowed cleavage resistance against Ulp1, SUMOstar protease, hsSENP2 and bdSENP1”.

Source: US20210261937
